Measurements: patent US6379943, “High-efficiency Cre/loxp based system for construction of adenovirus vectors” (Merck & Co., Inc.)

B1: loxP linker AB3233/AB3234 (dsDNA)
DNA 1: GATCCAATAACTTCGTATAGCATACATTATACGAAGTTATAAGTACTGAATTCG
DNA 2: GATCCGAATTCAGTACTTATAACTTCGTATAATGTATGCTATACGAAGTTATTG

Columns and labels:
[1] = biological target: Cre recombinase (Bacteriophage P1?) (UniProt P06956); assay: cell_activity; details: plasmids lacking lox; 5 plaques in 293 without Cre, homologous recombination background
Cre recombinase = Cre recombinase (UniProt P06956 P06956:1-343); assay: cell_activity; pCA36lox x pBHG10lox cotransfection; 168 plaques in 293Cre4 vs 4 in 293 (12 dishes each); details: tags: stably expressed in 293Cre4 cells; chain copies: 4; BamHI/BglII overhangs
Description: The efficiency of Cre/lox mediated recombination was compared with that of homologous recombination, by measuring the numbers of virus plaques obtained from cotransfections of 293 cells versus the numbers obtained following cotransfections of 293Cre4 cells (see, for example, U.S. patent application Ser. No. 08/473,168, filed Jun. 7, 1995; see also WO96/40955, hereby incorporated by reference).
Coupled with the fact that the only infectious virus present in the transfected cell preparation are recombinants, rather than contaminating starting virus, the efficiency, cleanliness and convenience of this method in comparison to known methods represent significant advances in the art. Thus, with this new method it will be possible to reduce the amount of plasmid DNA used in cotransfections and reduce the number of dishes of 293 (293Cre) cells needed in cotransfections for rescue of viral vectors. It will also aid in the rescue of constructs which, for unknown reasons, might be otherwise difficult to rescue (e.g. rescue of vectors containing large foreign DNA inserts in E1 is often inefficient for reasons that are not known).

Chain of Cre recombinase (P06956 whole entry, one chain of several): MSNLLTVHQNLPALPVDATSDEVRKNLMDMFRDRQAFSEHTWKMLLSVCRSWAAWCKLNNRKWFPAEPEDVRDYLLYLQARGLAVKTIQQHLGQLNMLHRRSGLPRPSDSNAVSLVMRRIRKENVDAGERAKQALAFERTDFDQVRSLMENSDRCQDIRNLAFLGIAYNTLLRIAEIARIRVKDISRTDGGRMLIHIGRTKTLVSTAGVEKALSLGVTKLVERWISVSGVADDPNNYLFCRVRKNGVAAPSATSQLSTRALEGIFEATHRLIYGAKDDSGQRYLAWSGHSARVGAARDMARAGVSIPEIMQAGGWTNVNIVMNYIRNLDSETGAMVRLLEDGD
Chain of Cre recombinase (Bacteriophage P1?) (P06956 whole entry): as the sequence (P06956 whole entry, one chain of several) above

Molecule	activity (plaques (12 dishes)) [1]	activity (Cre recombinase)
no-lox plasmid pair pCA36:pBHG10	7	–
B1	–	35 fold over homologous recombination
